From patent US20250011434A1, “ASYMMETRIC BISPECIFIC ANTIBODY (UMG2/CD1A-CD3E) FOR THE IMMUNOLOGICAL TREATMENT OF CORTICAL-DERIVED CD1A-EXPRESSING T-CELL ACUTE LYMPHOBLASTIC LEUKEMIAS (T-ALL)” (UNIVERSITA' DEGLI STUDI MAGNA GRAECIA DI CATANZARO, published 2025) come the findings set out here.

The assay concerns the target CD1a (Homo sapiens (Human), UniProt P06126). Briefly: titration experiments on cortical, CD1a-expressing T-ALL cell lines (apparent Kd, average).

B1: asymmetric bispecific antibody UMG2/CD1a-CD3ε BTCE (bispecific antibody)
heavy 1: not shown
heavy 2: not shown
light: DIQMTQTTSSLSASLGDRVTISCSASQDISNYLDWYQQKPDGTVRLLIYYTSSLHSGVPSRFSGSGSGTAFSLTIINLEPEDVATYYCHQYSNLPYTFGGGTKLEIKRTVAAPSVFIFPPSDEQLKSGTASVVCLLNNFYPREAKVQWKVDNALQSGNSQESVTEQDSKDSTYSLSSTLTLSKADYEKHKVYACEVTHQGLSSPVTKSFNRGEC
Regarding B1, the Kd was 0.014 µg/mL.
